The source of these data is patent US20060135432A1, “Agonists and antagonists of conadotropin-releasing hormone-2, and use thereof” (priority 2002, published 2006).

Assay [1] deals with rat GnRHR (rat) (UniProt P30969). The experiment in a line: displacement of I^125-GnRH-2 from membranes of GH3 cells expressing rat GnRHR. The settings on record: scale: log IC50.
Assay [2] has as its target bfGnRHR-3 (bullfrog). The experiment in a line: displacement of I^125-GnRH-2 from membranes of GH3 cells expressing bfGnRHR-3. To be noted: scale: log IC50.
The target in assay [3] is bfGnRHR-3 (bullfrog). The experiment in a line: cell-based or functional assay. The settings on record: for Log IC50, inhibition of GnRH-2-induced inositol phosphate production in GH3 cells expressing the receptor: scale: log IC50.
In assay [4] the target is rat GnRHR (rat) (UniProt P30969). Nature of the assay: cell-based or functional assay. The settings on record: scale: log IC50.

[ ]: non-standard residue; d: D form. dPhe(4-Cl) = N[C@H](Cc1ccc(Cl)cc1)C(=O)O; d2Nal = N[C@H](Cc1ccc2ccccc2c1)C(=O)O; dCit = NC(=O)NCCC[C@@H](N)C(=O)O; d3Pal = N[C@H](Cc1cccnc1)C(=O)O

rat GnRHR (rat), sequence (P30969 whole entry): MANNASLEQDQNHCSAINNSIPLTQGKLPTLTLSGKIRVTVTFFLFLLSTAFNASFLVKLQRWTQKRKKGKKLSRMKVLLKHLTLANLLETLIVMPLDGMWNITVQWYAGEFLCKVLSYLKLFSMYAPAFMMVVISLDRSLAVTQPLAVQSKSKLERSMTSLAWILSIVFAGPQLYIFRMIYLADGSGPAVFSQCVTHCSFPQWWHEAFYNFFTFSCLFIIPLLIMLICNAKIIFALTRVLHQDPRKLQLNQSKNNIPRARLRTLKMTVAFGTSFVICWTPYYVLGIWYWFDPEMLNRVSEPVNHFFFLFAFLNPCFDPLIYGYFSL

As to Ac-[d2Nal][dPhe(4-Cl)][d3Pal]SY[dCit]WYP[dA]-NH2 [Trptorelix-1], the log IC50 in the assay with rat GnRHR (rat) [1] is -11.8. Besides, in the assay with bfGnRHR-3 (bullfrog) [2], the log IC50 is -11.7. Further, in the assay with bfGnRHR-3 (bullfrog) [3], the inhibition of GnRH-2-induced IP production, sensitivity compared with Cetrorelix (fold more sensitive than Cetrorelix) came out at 1000 and the Log IC50, inhibition of GnRH-2-induced inositol phosphate production in GH3 cells expressing the receptor was -8.49. Moreover, in the assay with rat GnRHR (rat) [4], the Log IC50, inhibition of GnRH-induced inositol phosphate production in GH3 cells expressing the receptor is -9.27.
For Ac-[d2Nal][dPhe(4-Cl)][d3Pal]SY[dCit]LRP[dA]-NH2 [Cetrorelix], the log IC50 was -12.6 in the assay with rat GnRHR (rat) [1] and -7.11 with bfGnRHR-3 (bullfrog) [2]. Moreover, the Log IC50, inhibition of GnRH-2-induced inositol phosphate production in GH3 cells expressing the receptor in the assay with bfGnRHR-3 (bullfrog) [3] is -6.28. Also, the Log IC50, inhibition of GnRH-induced inositol phosphate production in GH3 cells expressing the receptor with rat GnRHR (rat) [4] is -11.
